# Where a chain is given by its changes, count along the chain named. In names and notes the source's numbering stands.
# B1: S25E: FoxM1 phosphorylated point mutant of the S25 residue, expressed by lentivirus in A549 cells (protein, listed as Homo sapiens)
# chain: MKTSPRRPLILKRRRLPLPVQNAPEETSEEEPKRSPAQQESNQAEASKEVAESNSCKFPAGIKIINHPTMPNTQVVAIPNNANIHSIITALTAKGKESGSSGPNKFILISCGGAPTQPPGLRPQTQTSYDAKRTEVTLETLGPKPAARDVNLPRPPGALCEQKRETCDGEAAGCTINNSLSNIQWLRKMSSDGLGSRSIKQEMEEKENCHLEQRQVKVEEPSRPSASWQNSVSERPPYSYMAMIQFAINSTERKRMTLKDIYTWIEDHFPYFKHIAKPGWKNSIRHNLSLHDMFVRETSANGKVSFWTIHPSANRYLTLDQVFKQQQKRPNPELRRNMTIKTELPLGARRKMKPLLPRVSSYLVPIQFPVNQSLVLQPSVKVPLPLAASLMSSELARHSKRVRIAPKVLLAEEGIAPLSSAGPGKEEKLLFGEGFSPLLPVQTIKEEEIQPGEEMPHLARPIKVESPPLEEWPSPAPSFKEESSHSWEDSSQSPTPRPKKSYSGLRSPTRCVSEMLVIQHRERRERSRSRRKQHLLPPCVDEPELLFSEGPSTSRWAAELPFPADSSDPASQLSYSQEVGGPFKTPIKETLPISSTPSKSVLPRTPESWRLTPPAKVGGLDFSPVQTSQGASDPLPDPLGLMDLSTTPLQSAPPLESPQRLLSSEPLDLISVPFGNSSPSDIDVPKPGSPEPQVSGLAANRSLTEGLVLDTMNDSLSKILLDISFPGLDEDPLGPDNINWSQFIPELQ
# B2: S25A: FoxM1 protein with Ser25 substituted with alanine, non-phosphorylated point mutant, expressed by lentivirus in A549 cells (protein)
# chain: B1 chain with E25A
# modifications: left off: a dimerising Fc or GST
# notes: FoxM1 protein with Ser25 substituted with alanine, non-phosphorylated point mutant, expressed by lentivirus in A549 cells
# Tests used:
# A549 lung cancer cells [1] = assay: EMT marker expression (immunoblot, real-time PCR) in A549 cells expressing FoxM1 WT or mutants; type: cell-based; conditions: A549 cells expressing the mutant
# Excerpt: To establish a stabilized cell line expressing WT, phosphorylation, and non-phosphorylated point mutants of FoxM1 in lung cancer cells, A549 cells were first infected with pLVX-Tet3G expressing lentivirus, and the infected cells were selected by treating with G418 for 5 days. The selected A549Tet3G cells were infected with lentiviruses expressing WT and phosphorylated point mutants (S25E, S361E, S715E) and non-phosphorylated point mutants (S25A, S361A, S715A) of FoxM1, and then treated with puromycin for 48 hours to establish a stabilized cell line. The established cells were treated with 2 μg/ml of doxycycline to induce expression of WT, phosphorylation, and non-phosphorylated point mutants of FoxM1, and the mRNA and protein expression levels of each FoxM1 point mutant were determined to confirm whether they were well expressed. As shown in FIG. 4A and FIG. 4B, it was confirmed that the WT and each point mutant form of FoxM1 were well expressed through mRNA and protein expression levels. It was observed that the expression levels of N-cadherin and vimentin were higher, and the expression levels of E-cadherin were lower in lung cancer cells expressing the phosphorylated form of FoxM1, specifically, phosphorylated at the phosphorylation site S25, compared to the cells expressing the non-phosphorylated form of FoxM1. In addition, when it was examined whether the expression of these phosphorylation and non-phosphorylated point mutants of FoxM1 affected cell proliferation, it was observed that it had no significant effect on cell proliferation (FIG. 4C).
# To establish a stabilized cell line expressing FoxM1 WT in A549 lung cancer cells, first, pLVX-Tet3G expressing lentivirus was infected into cells, and the infected cells were selected by treating 500 μg/ml of G418 for 5 days. The selected A549^Tet3G cells were infected with lentiviruses expressing FoxM1 WT or Mock, and the stabilized cell lines were established by treating with 2 μg/ml of puromycin for 48 hours. After inducing the expression of FoxM1 WT by treating the established cells with 2 μg/ml of doxycycline, the protein expression was observed by immunoblot.
# A549 cells = assay: PD-L1 (CD274) mRNA in A549 cells by real-time PCR; type: cell-based
# Method: To examine the mRNA expression levels of PD-1 and PD-L1, which are involved in solid tumor immune evasion, in THP-1 cells and the cells expressing the FoxM1 phosphorylated point mutant, the expression of PD-1 (CD279) mRNA, an immune evasion factor, was measured by qRT-PCR in THP-1 monocytes co-cultured with A549^S25E cells for 48 h (FIG. 7B). It was observed that the expression of mRNA of PD-L1 (CD274), an immune evasion factor, increased by 2 folds in the A549^S25E cells expressing the phosphorylated point mutant compared to the control group.
# A549 lung cancer cells [2] = assay: Matrigel invasion assay of A549 cells expressing FoxM1 WT or point mutants; type: cell-based; conditions: for invasion of cancer cells (in words): Matrigel invasion assay, A549
# Method: To observe the effects of the WT, phosphorylation, and non-phosphorylated point mutants of FoxM1 proteins on the invasion of cancer cells, an invasion assay using Matrigel was performed in lung cancer cells A549 expressing these mutants.
# Specifically, after completely dissolving Matrigel at 4° C. for 16-20 hours, Matrigel was diluted with cold serum-free RPMI 1640 (4° C.) to 1 mg/ml. 100 μl of Matrigel mixture (1 mg/ml) was added to an […] 24-well insert and solidified in a 37° C. incubator for 12-20 hours. 1×10^5 cells/well of lung cancer cells A549 expressing each WT, phosphorylation, and non-phosphorylated point mutant FoxM1 proteins were diluted in serum-free RPMI 1640 (36° C.) and dispensed onto the insert. 0.5 ml/well of warm RPMI 1640 (10% FBS) at 36° C. was dispensed to the insert. For the positive control group, 0.5 ml of RPMI 1640 (10% FBS) containing 5 ng/ml TGF-β at 36° C. was used. The medium was changed once every 3 days, and the degree of invasion was observed. On the 7th day, when sufficient cancer cell invasion was observed, the medium was removed, washed with 1×PBS, and the cells inside the insert were scraped with a cotton swab and washed with 1×PBS to remove any remaining cells and Matrigel inside the insert. 500 μl of 4% paraformaldehyde was dispensed into the 24 wells with the outer surface of the insert, incubated at room temperature for 5 minutes, washed three times with 1×PBS, and stained with 0.05% crystal violet solution for 5 minutes. After 5 minutes, it was washed five times with 1×PBS and dissolved in DMSO. The degree of staining was determined by measuring the absorbance at 590 nm.
# Specifically, Matrigel was completely solved at 4° C. for 16-20 hours and diluted to 1 mg/ml in cold serum free RPMI 1640 (4° C.). 100 μl of Matrigel mixture (1 mg/ml) was added into […] 24-well insert and solidified in a 37° C. incubator for 12-20 hours. A549 lung cancer cells expressing Mock or the experimental group FoxM1 WT protein were dispensed on the solidified Matrigel insert with 1×10^5 cells/well diluted in serum free RPMI 1640 (36° C.), and 0.5 ml/well of 36° C. of warm RPMI 1640 (10% FBS) were dispensed. For the positive control group, 0.5 ml of 36° C. RPMI 1640 (10% FBS) containing 5 ng/ml of TGF-β were dispensed. Then, once in 3 days, the medium was changed, and the level of invasion was observed. […] 500 ul of 4% paraformaldehyde was dispensed into 24 wells where the outer surface of the insert was placed, incubated for 5 minutes at room temperature, washed three times with 1×PBS, and stained with 0.05% crystal-violet solution for 5 minutes. After 5 minutes, they were washed 5 times with 1×PBS, and the degree of staining was dissolved in DMSO, and the wavelength was measured at 590 nm.
# lung tissues = assay: CD68 and CD163 immunostaining and immunoblot of lung tissues of injected mice; type: in vivo; conditions: for protein expression of CD68 and CD163, immunoblot: lung tissue lysates
# Method: Additionally, the increase of macrophages around the tumor was examined by immunoblot using lung tissue lysates. […] Through the results of this study, it could be observed that the non-phosphorylated point mutant had the effect of inhibiting polarization into tumor-associated macrophages.
# Furthermore, CD68, a marker for a broad range of macrophages, and CD163, a marker for tumor-associated macrophages, were analyzed in lung tissues of mice using immunostaining. It was determined that the expression of both CD68 and CD163 markers was increased in the lung tissues of mice injected with the FoxM1 WT protein over-expressed cells (FIG. 13D). Through the present results, it could be observed that there was an effect of promoting the polarization of M2 tumor-associated macrophages in lung cancer cells expressing the FoxM1 WT protein.
Molecule,"expression of N-cadherin (CDH2), qRT-PCR and Western blot (A549 lung cancer cells [1])",mRNA expression of PD-L1 (CD274) compared to the control group (A549 cells; A549 cells expressing the protein) [folds],invasion of cancer cells (in words) (A549 lung cancer cells [2]),"absorbance value at 590 nm (invasion) compared to the control group (A549 lung cancer cells [2]; Matrigel, 7th day, control set to 1) [times]","protein expression of CD68 and CD163, immunoblot (lung tissues)","expression of CD68 and CD163 markers, immunostaining (lung tissues; lung tissues of injected mice)","mRNA (CD274) expression of PD-L1, reduction compared to the control group (A549 cells; A549 cells expressing the mutant)",invasion of cancer cells (in words) (A549 lung cancer cells [2]; listed as FoxM1 non-phosphorylated point mutant),invasion of cancer cells (in words) (A549 lung cancer cells [2]; listed as non-phosphorylated point mutant protein of FoxM1),"expression of CD68 and CD163 markers, immunostaining (in words) (lung tissues; lung tissues of injected mice)"
B1,increased,2,highest cancer cell invasion,~40,significantly higher,approximately 3 times,–,–,–,–
B2,reduced and inhibited,–,–,–,lower,–,about 50%,lower relative absorbance,reduced,significantly low
